From paper PMC9486893, “Protein Conformational Space at the Edge of Allostery: Turning a Nonallosteric Malate Dehydrogenase into an “Allosterized” Enzyme Using Evolution-Guided Punctual Mutations” (Molecular Biology and Evolution, 2022)
Values belong to the molecule of their own block, whether it stands above or below them.

How the values were obtained:
[1] = target: Archaeoglobus fulgidus malate dehydrogenase mutant 3 (R102Q and P250I) (Archaeoglobus fulgidus); assay: SEC-MALS; SEC-MALLS with refractometry; Enrich 650 column, 50 mM Tris-HCl pH 7.2, 50 mM NaCl, room temperature, 50 ul at ~1 mg/ml, 0.5 ml/min; self-association (dimer)
[2] = target: Archaeoglobus fulgidus malate dehydrogenase mutant 1 (R102Q) (Archaeoglobus fulgidus); assay: as above
[3] = target: Archaeoglobus fulgidus malate dehydrogenase mutant 2 (P250I) (Archaeoglobus fulgidus); assay: as above
purified protein [4] = substrate: CC(=O)C(=O)O; assay: purified protein; type: biochemical, Archaeoglobus fulgidus; details: 0.5 mM NADH, MES pH 6.0, 50 mM NaCl, 70 °C (340 K in Figure 3)
purified protein [5] = substrate: O=C(O)CC(=O)C(=O)O; assay: purified protein; type: biochemical, Archaeoglobus fulgidus; details: 0.5 mM NADH, 50 mM potassium phosphate pH 7.0, 50 mM NaCl
[6] = target: the molecule itself; assay: SEC-MALS; SEC-MALLS with refractometry; Enrich 650 column, 50 mM Tris-HCl pH 7.2, 50 mM NaCl, room temperature, 50 ul at ~1 mg/ml, 0.5 ml/min; self-association (dimer)
[7] = mutant 3, sigmoid (homotropic activation)
[8] = 70 °C (340 K in Figure 3), mutant 2, hyperbolic, text b25 gives 1.31 mM
[9] = 70 °C (340 K in Figure 3), substrate inhibition at excess OAA

stoichiometry N [1]: 2
Molecule: Archaeoglobus fulgidus malate dehydrogenase mutant 3 (R102Q and P250I) (enzyme)

stoichiometry N [2]: 2
Molecule: Archaeoglobus fulgidus malate dehydrogenase mutant 1 (R102Q) (enzyme)

stoichiometry N [3]: 2
Molecule: Archaeoglobus fulgidus malate dehydrogenase mutant 2 (P250I) (enzyme)

B1: Wt A. fulgidus MalDH (Archaeoglobus fulgidus DSM 4304; P216I/R81Q) (protein)
chain: MKLGFVGAGRVGSTSAFTCLLNLDVDEIALVDIAEDLAVGEAMDLAHAAAGIDKYPKIVGGADYSLLKGSEIIVVTAGLAQKPGMTRLDLAHKNAGIIKDIAKKIVENAPESKILVVTNPMDVMTYIMWKESGKPRNEVFGMGNQLDSQRLKERLYNAGARNIRRAWIIGEHGDSMFVAKSLADFDGEVDWEAVENDVRFVAAEVIKRKGATIFGIAVAIYRMVKAVVEDTGEIIPTSMILQGEYGIENVAVGVPAKLGKNGAEVADIKLSDEEIEKLRNSAKILRERLEELGY
notes: full-length, codon-optimized synthetic gene in pET-20a (NdeI/BamHI), E. coli BL21 DE3 pLysS; no tag mentioned; homodimer, theoretical 72 kDa (SEC-MALLS 62-65 kDa)
K0.5 (purified protein [4]; [7]): 100 mM | kcat (purified protein [4]; [7]): 21 s⁻¹ | kcat/Km (purified protein [4]; [7]): 210 M⁻¹ s⁻¹

B2: Wt A. fulgidus MalDH (Archaeoglobus fulgidus DSM 4304; P216I) (protein)
chain: MKLGFVGAGRVGSTSAFTCLLNLDVDEIALVDIAEDLAVGEAMDLAHAAAGIDKYPKIVGGADYSLLKGSEIIVVTAGLARKPGMTRLDLAHKNAGIIKDIAKKIVENAPESKILVVTNPMDVMTYIMWKESGKPRNEVFGMGNQLDSQRLKERLYNAGARNIRRAWIIGEHGDSMFVAKSLADFDGEVDWEAVENDVRFVAAEVIKRKGATIFGIAVAIYRMVKAVVEDTGEIIPTSMILQGEYGIENVAVGVPAKLGKNGAEVADIKLSDEEIEKLRNSAKILRERLEELGY
notes: as for B1
K0.5 (purified protein [5]; [8]): 1.3 mM | kcat (purified protein [5]; [8]): 175 s⁻¹ | kcat/Km (purified protein [5]; [8]): 130000 M⁻¹ s⁻¹

B3: Wild-type Archaeoglobus fulgidus malate dehydrogenase (enzyme)
chain: MKLGFVGAGRVGSTSAFTCLLNLDVDEIALVDIAEDLAVGEAMDLAHAAAGIDKYPKIVGGADYSLLKGSEIIVVTAGLARKPGMTRLDLAHKNAGIIKDIAKKIVENAPESKILVVTNPMDVMTYIMWKESGKPRNEVFGMGNQLDSQRLKERLYNAGARNIRRAWIIGEHGDSMFVAKSLADFDGEVDWEAVENDVRFVAAEVIKRKGATIFGPAVAIYRMVKAVVEDTGEIIPTSMILQGEYGIENVAVGVPAKLGKNGAEVADIKLSDEEIEKLRNSAKILRERLEELGY
notes: synthetic gene codon-optimised for E. coli, in pET-20a (NdeI/BamHI); No tag is mentioned; purification was by heat treatment, ion exchange and gel filtration; Homodimer; also called Wt A. fulgidus MalDH; Wt enzyme; source: E. coli BL21 DE3 pLysS, purified (70 °C heat step, Q sepharose, gel filtration)
K0.5 (purified protein [5]; [9]): 0.1 mM | kcat (purified protein [5]; [9]): 417 s⁻¹ | kcat/Km (purified protein [5]; [9]): 4.3e+06 M⁻¹ s⁻¹ | stoichiometry N [6]: 2

B4: Wt A. fulgidus MalDH (Archaeoglobus fulgidus DSM 4304; R81Q) (protein)
chain: MKLGFVGAGRVGSTSAFTCLLNLDVDEIALVDIAEDLAVGEAMDLAHAAAGIDKYPKIVGGADYSLLKGSEIIVVTAGLAQKPGMTRLDLAHKNAGIIKDIAKKIVENAPESKILVVTNPMDVMTYIMWKESGKPRNEVFGMGNQLDSQRLKERLYNAGARNIRRAWIIGEHGDSMFVAKSLADFDGEVDWEAVENDVRFVAAEVIKRKGATIFGPAVAIYRMVKAVVEDTGEIIPTSMILQGEYGIENVAVGVPAKLGKNGAEVADIKLSDEEIEKLRNSAKILRERLEELGY
notes: as for B1
K0.5 (purified protein [4]; mutant 1, pH 6.0): 5.6 mM | kcat (purified protein [4]; mutant 1, pH 6.0): 40 s⁻¹ | kcat/Km (purified protein [4]; mutant 1, pH 6.0): 7100 M⁻¹ s⁻¹ | K0.5 (purified protein [5]; 70 °C, mutant 1, pH 7.0): 14 mM | kcat (purified protein [5]; 70 °C, mutant 1, pH 7.0): 12 s⁻¹ | kcat/Km (purified protein [5]; 70 °C, mutant 1, pH 7.0): 900 M⁻¹ s⁻¹
